Where a chain is given by its changes, count along the chain named. Numbers in names are those of the source.

The target of the assay is T1, CD3ε homodimer protein (human, UniProt P07766 23-126, limits assumed).
T1 construct: also called CD3 (CD3ε)
Kind of assay: SPR Biacore T200, CD3ε homodimer on chip.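 Note: Light-chain single-residue variant antibodies injected over amine-coupled CD3ε homodimer on a CM4 chip at 25 °C, bound amount divided by that of the GLS3000-containing antibody.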

T1 sequence (P07766 23-126 limits assumed): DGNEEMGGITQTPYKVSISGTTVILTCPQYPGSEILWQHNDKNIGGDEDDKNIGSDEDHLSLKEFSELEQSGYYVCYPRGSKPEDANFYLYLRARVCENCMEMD

B1: GLS3000 S56M one-arm antibody (antibody, human IgG1, kappa, L234A L235A, N297A, name in Kabat numbering)
heavy: QVQLVESGGGVVQPGRSLRLSCAASGFTFSNAWMHWVRQAPGKGLEWVAQIKAKSNNYATYYAESVKGRFTISRDDSKNSLYLQMNSLKTEDTAVYYCRYVHYGAYYGVDAWGQGTTVTVSSASTKGPSVFPLAPSSKSTSGGTAALGCLVKDYFPEPVTVSWNSGALTSGVHTFPAVLQSSGLYSLSSVVTVPSSSLGTQTYICNVNHKPSNTKVDKKVEPKSCDKTHTCPPCPAPEAAGGPSVFLFPPKPKDTLMISRTPEVTCVVVDVSHEDPEVKFNWYVDGVEVHNAKTKPREEQYASTYRVVSVLTVLHQDWLNGKEYKCKVSNKALPAPIEKTISKAKGQPREPQVYTLPPSRCELTKNQVSLSCAVKGFYPSDIAVEWESNGQPENNYKTTPPVLDSDGSFFLVSKLTVDKSRWQQGNVFSCSVMHEALHNHYTQKSLSLSPDYKDDDDK
chain: EPKSSDKTHTCPPCPAPELLGGPSVFLFPPKPKDTLMISRTPEVTCVVVDVSHEDPEVKFNWYVDGVEVHNAKTKPREEQYNSTYRVVSVLTVLHQDWLNGKEYKCKVSNKALPAPIEKTISKAKGQPREPQVCTLPPSRDELTKNQVSLWCLVKGFYPSDIAVEWESNGQPENNYKTTPPVLDSDGSFFLYSKLTVDKSRWQQGNVFSCSVMHEALHNRYTQKSLSLSP
light: DIVMTQSPLSLPVTPGEPASISCRSSQSLVHSNRNTYLHWYQQKPGQAPRLLIYKVSNRFMGVPDRFSGSGSGTDFTLKISRVEAEDVGVYYCGQGTQVPYTFGQGTKLEIKRTVAAPSVFIFPPSDEQLKSGTASVVCLLNNFYPREAKVQWKVDNALQSGNSQESVTEQDSKDSTYSLSSTLTLSKADYEKHKVYACEVTHQGLSSPVTKSFNRGEC
B1: the “ratio of amount bound vs unaltered GLS3000” value (“ratio of amount bound” for short) is 1.05.

B2: GLS3000 T92D one-arm antibody (antibody, human IgG1, kappa, L234A L235A, N297A, name in Kabat numbering)
heavy: B1 heavy
chain: B1 chain
light: B1 light with M61S, T97D
For B2, the “ratio of amount bound” value turned out to be 0.18.

B3: GLS3000 T92S one-arm antibody (antibody, human IgG1, kappa, L234A L235A, N297A, name in Kabat numbering)
heavy: B1 heavy
chain: B1 chain
light: B1 light with M61S, T97S
For the molecule B3, the “ratio of amount bound” value worked out at 0.96.

B4: GLS3000 T31E one-arm antibody (antibody, human IgG1, kappa, L234A L235A, N297A, name in Kabat numbering)
heavy: B1 heavy
chain: B1 chain
light: B1 light with T36E, M61S
For the molecule B4, the “ratio of amount bound” value was 0.49.

B5: GLS3000 S56R one-arm antibody (antibody, human IgG1, kappa, L234A L235A, N297A, name in Kabat numbering)
heavy: B1 heavy
chain: B1 chain
light: B1 light with M61R
With B5, the “ratio of amount bound” value is 1.36.

B6: GLS3000 S56N one-arm antibody (antibody, human IgG1, kappa, L234A L235A, N297A, name in Kabat numbering)
heavy: B1 heavy
chain: B1 chain
light: B1 light with M61N
As for B6, the “ratio of amount bound” value worked out at 0.92.

B7: GLS3000 T92P one-arm antibody (antibody, human IgG1, kappa, L234A L235A, N297A, name in Kabat numbering)
heavy: B1 heavy
chain: B1 chain
light: B1 light with M61S, T97P
Regarding B7, the “ratio of amount bound” value was found to be 0.26.

B8: GLS3000 S56T one-arm antibody (antibody, human IgG1, kappa, L234A L235A, N297A, name in Kabat numbering)
heavy: B1 heavy
chain: B1 chain
light: B1 light with M61T
Take B8: the “ratio of amount bound” value was 0.97.

B9: GLS3000 T31I one-arm antibody (antibody, human IgG1, kappa, L234A L235A, N297A, name in Kabat numbering)
heavy: B1 heavy
chain: B1 chain
light: B1 light with T36I, M61S
Take B9: the “ratio of amount bound” value was found to be 0.97.

B10: GLS3000 S56V one-arm antibody (antibody, human IgG1, kappa, L234A L235A, N297A, name in Kabat numbering)
heavy: B1 heavy
chain: B1 chain
light: B1 light with M61V
On to B10, for which the “ratio of amount bound” value was 0.95.

B11: GLS3000 T92L one-arm antibody (antibody, human IgG1, kappa, L234A L235A, N297A, name in Kabat numbering)
heavy: B1 heavy
chain: B1 chain
light: B1 light with M61S, T97L
Turning to B11, the “ratio of amount bound” value stood at 0.42.

B12: GLS3000 S56P one-arm antibody (antibody, human IgG1, kappa, L234A L235A, N297A, name in Kabat numbering)
heavy: B1 heavy
chain: B1 chain
light: B1 light with M61P
For B12, the “ratio of amount bound” value worked out at 0.95.

B13: GLS3000 T31K one-arm antibody (antibody, human IgG1, kappa, L234A L235A, N297A, name in Kabat numbering)
heavy: B1 heavy
chain: B1 chain
light: B1 light with T36K, M61S
B13: the “ratio of amount bound” value was 1.04.

B14: GLS3000 T31P one-arm antibody (antibody, human IgG1, kappa, L234A L235A, N297A, name in Kabat numbering)
heavy: B1 heavy
chain: B1 chain
light: B1 light with T36P, M61S
For the molecule B14, the “ratio of amount bound” value came out at 0.31.

B15: GLS3000 S56W one-arm antibody (antibody, human IgG1, kappa, L234A L235A, N297A, name in Kabat numbering)
heavy: B1 heavy
chain: B1 chain
light: B1 light with M61W
With B15, the “ratio of amount bound” value was determined as 1.38.

B16: GLS3000 T31N one-arm antibody (antibody, human IgG1, kappa, L234A L235A, N297A, name in Kabat numbering)
heavy: B1 heavy
chain: B1 chain
light: B1 light with T36N, M61S
Consider B16, for which the “ratio of amount bound” value was 0.32.

B17: GLS3000 T92I one-arm antibody (antibody, human IgG1, kappa, L234A L235A, N297A, name in Kabat numbering)
heavy: B1 heavy
chain: B1 chain
light: B1 light with M61S, T97I
Turning to B17, the “ratio of amount bound” value amounted to 0.34.

B18: GLS3000 T31D one-arm antibody (antibody, human IgG1, kappa, L234A L235A, N297A, name in Kabat numbering)
heavy: B1 heavy
chain: B1 chain
light: B1 light with T36D, M61S
In the case of B18, the “ratio of amount bound” value turned out to be 0.23.

B19: GLS3000 T92A one-arm antibody (antibody, human IgG1, kappa, L234A L235A, N297A, name in Kabat numbering)
heavy: B1 heavy
chain: B1 chain
light: B1 light with M61S, T97A
On to B19, for which the “ratio of amount bound” value was 0.63.

B20: GLS3000 T92E one-arm antibody (antibody, human IgG1, kappa, L234A L235A, N297A, name in Kabat numbering)
heavy: B1 heavy
chain: B1 chain
light: B1 light with M61S, T97E
Turning to B20, the “ratio of amount bound” value was determined as 0.17.

B21: GLS3000 S56Q one-arm antibody (antibody, human IgG1, kappa, L234A L235A, N297A, name in Kabat numbering)
heavy: B1 heavy
chain: B1 chain
light: B1 light with M61Q
B21: the “ratio of amount bound” value stood at 1.04.

B22: GLS3000 S56Y one-arm antibody (antibody, human IgG1, kappa, L234A L235A, N297A, name in Kabat numbering)
heavy: B1 heavy
chain: B1 chain
light: B1 light with M61Y
In the case of B22, the “ratio of amount bound” value was 1.46.

These data come from patent US20260049138A1 (Chugai, published 2026).
